Reference: PMC2173332
Like-named read-outs stand apart in the source and are kept apart here.

Columns and labels:
[1] = biological target: acyl-CoA oxidase isoform Aox1p (Yarrowia lipolytica); test: co-IP
[2] = biological target: acyl-CoA oxidase isoform Aox1p (Yarrowia lipolytica); test: co-IP; remark: listed apart in the source

Substance	stoichiometry N [1]	stoichiometry N [2]
acyl-CoA oxidase isoform Aox4p (enzyme)	1	1
acyl-CoA oxidase isoform Aox3p (enzyme)	1	1
acyl-CoA oxidase isoform Aox5p (enzyme)	1	1
acyl-CoA oxidase isoform Aox2p (enzyme)	1	1
